Biological target: T1, Rev1 G193R (1-746) (Saccharomyces cerevisiae (expression …, UniProt P12689 1-746, G193R))
T1 sequence: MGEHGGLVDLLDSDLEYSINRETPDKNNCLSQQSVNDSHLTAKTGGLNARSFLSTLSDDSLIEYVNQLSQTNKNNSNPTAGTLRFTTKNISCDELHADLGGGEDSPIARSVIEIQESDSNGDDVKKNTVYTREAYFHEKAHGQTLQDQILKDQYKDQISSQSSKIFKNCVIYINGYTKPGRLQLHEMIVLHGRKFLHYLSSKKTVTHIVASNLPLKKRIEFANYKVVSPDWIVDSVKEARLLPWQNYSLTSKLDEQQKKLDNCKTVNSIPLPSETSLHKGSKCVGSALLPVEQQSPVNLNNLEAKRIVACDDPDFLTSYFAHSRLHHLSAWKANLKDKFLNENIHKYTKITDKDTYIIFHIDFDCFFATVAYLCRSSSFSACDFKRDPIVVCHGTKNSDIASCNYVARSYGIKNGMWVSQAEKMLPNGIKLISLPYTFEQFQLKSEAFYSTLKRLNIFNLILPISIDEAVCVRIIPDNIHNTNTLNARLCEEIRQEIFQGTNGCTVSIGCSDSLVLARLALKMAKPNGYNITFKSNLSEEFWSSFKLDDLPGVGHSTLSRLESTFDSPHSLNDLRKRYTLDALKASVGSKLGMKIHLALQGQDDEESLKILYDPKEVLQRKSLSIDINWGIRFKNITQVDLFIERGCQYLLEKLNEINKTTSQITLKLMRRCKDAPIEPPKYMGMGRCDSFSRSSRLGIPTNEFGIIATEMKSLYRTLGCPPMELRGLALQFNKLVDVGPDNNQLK
Assay: pre-steady-state burst amplitude titration

B1: 24/45-mer primer-template (dsDNA)
DNA 1: GCCTCGCAGCCGTCCAACCAACTC
DNA 2: GGACGGCATTGGATCGACCTGGAGTTGGTTGGACGGCTGCGAGGC
B1 was tested, and the Kd was 16 ± 5 nM.
